Columns and labels:
FATP1 = test: Plasma membrane FATP1 expression in primary adipocytes; format: cell-based, mouse; settings: Mfge8−/− adipocytes
Procedure: Following tissue preparation and SDS-PAGE, membranes were incubated with a polyclonal antibody against Akt (Cell Signaling Technology), or Rictor (Cell Signaling); Anti-PGC1 alpha antibody (abcam); a monoclonal antibody against Phospho-Akt Ser473 (Cell Signaling), Phospho-Rictor Thr1135 (Cell Signaling), GAPDH (Cell Signaling), or Mfge8 (R&D Systems). For evaluation of total AKT and total Rictor, membranes that been blotted for phospho-AKT and phospho-Rictor were stripped and reprobed. Plasma membrane and post-plasma membrane fractions were isolated as previously described (Nishiumi, S. & Ashida, H., Biosci Biotechnol Biochem 71, 2343-2346 (2007)).

antral smooth muscle = test: Force of antral smooth muscle ring contraction; parameters: species or system mouse; settings: addition of rMfge8
AKT = test: Western blot of antral tissue, AKT phosphorylation; parameters: species or system mouse; settings: antral tissue treated for 30 minutes
Procedure: In FIG. 14A, the antral rings were treated for 15 min with PI3K inhibitor wortmannin (Wort.100 nm) followed by assessment of contractile force in response to MCh. N=3-4. ***P<0.0001. […] Western blot of antral tissue were treated for 30 minutes with or without rMfge8. […] Western blot of antrum were treated for 30 minutes with wortmannin (100 ng/ml) or Mfge8 and then with MCh for 15 minutes prior to quantifying active RhoA using a GST pull-down. […] PTEN activity assay measured the conversion of PIP3 to PIP2 in freshly isolated antrum with and without the rMfge8 or RGE construct (10 μg/ml) n=3-5. *P<0.05, **P<0.01, ***P<0.001.

cardiac myocytes = test: Fatty acid uptake in primary cardiac myocytes; format: cell-based, mouse

B1: rMfge8: recombinant Milk Fat Globule Epidermal Growth Factor 8, an integrin ligand, expressed in High 5 cells (protein)
chain: ASGDFCDSSLCLNGGTCLTGQDNDIYCLCPEGFTGLVCNETERGPCSPNPCYNDAKCLVTLDTQRGDIFTEYICQCPVGYSGIHCETETNYYNLDGEYMFTTAVPNTAVPTPAPTPDLSNNLASRCSTQLGMEGGAIADSQISASSVYMGFMGLQRWGPELARLYRTGIVNAWTASNYDSKPWIQVNLLRKMRVSGVMTQGASRAGRAEYLKTFKVAYSLDGRKFEFIQDESGGDKEFLGNLDNNSLKVNMFNPTLEAQYIKLYPVSCHRGCTLRFELLGCELHGCSEPLGLKNNTIPDSQMSASSSYKTWNLRAFGWYPHLGRLDNQGKINAWTAQSNSAKEWLQVDLGTQRQVTGIITQGARDFGHIQYVASYKVAHSDDGVQWTVYEEQGSSKVFQGNLDNNSHKKNIFEKPFMARYVRVLPVSWHNRITLRLELLGC
FATP1
  membrane expression of FATP1: increased
Antral smooth muscle
  smooth muscle contraction of stomach strips from Mfge8 KO mice: rescued
AKT
  AKT phosphorylation in antral tissue: reduces
Cardiac myocytes
  fatty acid uptake in Mfge8−/− cardiac myocytes: rescued

— patent US10005838B2, “Milk fat globule epidermal growth factor 8 regulates fatty acid uptake” (REGENTS OF THE UNIVERSITY OF CALIFORNIA, priority 2013, dated 2018)
